From paper PMC7365037

Experiments:
Assay in all cases: ITC
[1] = biological target: human CBX3 chromodomain, wild-type (His-tagged) (human) (UniProt Q13185)
[2] = biological target: HP1α K46A/E52D/D62F engineered chromodomain (His-tagged) (D. melanogaster) (UniProt P05205)
[3] = biological target: human CBX1 chromodomain double mutant K46A/D62F (HP1α numbering) (His-tagged) (human)
[4] = biological target: human CBX3 chromodomain double mutant K46A/D62F (HP1α numbering) (His-tagged) (human)
[5] = biological target: HP1α chromodomain from D. melanogaster, wild-type (His-tagged) (D. melanogaster) (UniProt P05205)
[6] = biological target: human CBX1 chromodomain, wild-type (His-tagged) (human) (UniProt P83916)
Chain of UniProt P83916 (P83916 15-73): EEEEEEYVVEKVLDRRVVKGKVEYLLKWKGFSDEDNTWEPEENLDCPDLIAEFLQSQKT

Chain of UniProt Q13185 (Q13185 25-81): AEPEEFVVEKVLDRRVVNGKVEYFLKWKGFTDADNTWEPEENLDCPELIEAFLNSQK

H3K9me3 peptide (used in ITC)
Kd [1]: 3000 nM
Kd [2]: 700 nM
Kd [3]: 130 nM
Kd [4]: 400 nM
Kd [5]: 14000 nM
Kd [6]: 600 nM
